Measurements as given in the domain aggregation screens of Martell et al. (2025).

Test: soluble fraction after stress (log2 fold change); higher = more stays soluble; pooled small domains, quantitative proteomics
Conditions: stress: 75 degC
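Further: 20 min heating vs room temperature control held 20 min.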

## HMSSKAVLEKFEALFIDQMLQSMRKATVRSELFDSEGIKLYESLFDKEISEELAKSGGLGLTKDLEQQL
  soluble fraction (log2): -1.36

## HMEFEYFQLRDHLYNLIMHPDKEKLKKDPDYLKLMSMAFSLLEDQNVGKDILEIAIKSIENFK
  soluble fraction (log2): -0.847

## HMPTPLTPREHEIANLIAQGLSNREIADELVISPATAARHVANILAKLGFSSRTQVASWATRHD
  soluble fraction (log2): -0.277

## HMQLLDIGSAVRIIREPYFGRLGTVVELPPELMEIESGTHARVLKAKLDDGTVAVVPRANVEIIVE
  soluble fraction (log2): -0.785

## HMGDTVSGTMLNLKPGVRVVHQIFGPGRVEETTGASLAEFRVTVRFEQKGLKTLLLQYAALQVINSEN
  soluble fraction (log2): -1.73

## HMGNTLAYSEFRQKVQEGAVKQVVLSEDRVTGELTNGDRFTANIVRDPELLKMLNDNNVKYDGKPT
  soluble fraction (log2): 0.154

## HMKNEFRVYPNPANKEIVTFNQTQDIEVYDTLGKLVLKAKNTNTLDTKSFHSGIYFIKTGSGLTRKLVV
  soluble fraction (log2): -1.09

## HMLHSEDATVVRQAIPLLERHVDAATVAVARRNLAQLEQFGRYPRRNQALGRISNPAENAYLRAER
  soluble fraction (log2): 0.0695

## HMSKQQFLDELAARLREEGAELLVAENLNFYRSYIEEEVAKGRSEEEVLAELGNPALIARSILDAAGF
  soluble fraction (log2): -0.219

## HMGSGQVTLPDLEGKSMKEVARILSQLGLHLSPDGHGLAFKQSPAAGTRVPVGSTIKVSFQPL
  soluble fraction (log2): -0.164

## HMEKGWYKLGQDSYYVDDDGKIHKGWLELDGKKYYFDQEGKMVTGTVNIDGKDYTFNEKGELYVS
  soluble fraction (log2): ≥ 1.04

## HMSSIYVYPNPTANRIYIQADNIKKAELFDLMGRKVRSTNQPQIDISRLSRGNYILQVKTQNNTQSFKIIK
  soluble fraction (log2): -0.705

## HMTFKDIMENYTISRIENTINSAVVFLDEINAYITIDKTQLPSNLRYDTDSKIMASQIPDDAKIKYFMIYW
  soluble fraction (log2): -2.12

## HMVLTSFHDNFPKTGTTYTVRSGDTISGIATKFGSTRDWIQNANEISHPKYLQVGRTLFIPH
  soluble fraction (log2): -0.302

## HMRRSVYQANVLDAIKHLVDQNELATTKAIAEYIGDDYQGNVSRAIRELLADRKIKKLPKVGVLQPYEA
  soluble fraction (log2): -0.442

## HMEAYSAEAVRFRIKAMIESETVDDVMSDDKIVERLLADGVDIARRTVAKYREAMNIPSSVKRRRKLKGM
  soluble fraction (log2): -1.92

## HMSFNGTILSNYQKTYPNLAKFTYDQANDALVYEGNFIKLNGYGLSRIDPVFFNMNPDEIFIFIKNG
  soluble fraction (log2): -3.85

## HMKLEKKWIEAVEKYRRYVLSTGIKHVQKPIEFENFRLGQWYADVRQSYRRGTLSKEKLLEIREINPDFPN
  soluble fraction (log2): -2.17

## HMRQGHLDLLRQIHALPPSTREVVYLRAFGGLSFREIGDVLGRTETWARVTFYRGKEALRKG
  soluble fraction (log2): -0.106

## HMQDPTAVISRVLEERKHQPGALLPILHGIQDALGYVPREAVAQIAQALNLSRAEIHGVVSFYHHFR
  soluble fraction (log2): -0.59

## HMHEYSRIYQQQWWDNATGADAYHVIHSARSRAAQDPEAARALEYLEEQFRIRYGVRTEDFLGYLHD
  soluble fraction (log2): -1.2

## HMSIEHVPGYTTLSKREQEIVHALLTRKTPEELADDLSISINTLNKHISHIYHKLGIRGRMQLFDYA
  soluble fraction (log2): -1.1

## HMLHQSLVVNAASGRVTVSLDIVPDEDNPYAVLRATDDSDEPLAQVRVAPSFKLNRASALAWIESQFARP
  soluble fraction (log2): -2.34

## HMGTGADKNSWTIGDKVKHRKWGTGTVVKVTGAGEDAELDIAFKSEGIKRLLAAFAPIEKVK
  soluble fraction (log2): -0.165

## HMNKNQIGTNAGIVWKLLSDNVHWEYDKLKHASGLSDRDLNAAIGWLAREDKIDFDIDEQHDRLFL
  soluble fraction (log2): -0.515

## HMVTLQEVKQYLRIDFEEEDPLLLSLLATAKQQVMNVGRMDEAQLSEHEDTARTAILYAVSYLYENRN
  soluble fraction (log2): -1.82

## HMETTVPNVLNHNISTGEILLKENNLNFRIQYIPSNKDEAVGTIINSVPTSGEKVKFGTVVDLKVL
  soluble fraction (log2): 0.146

## HMLLLHINQMGVTEFSQLELNHVRSWLANLQIKGAARSSITRRVVSVRAFTYWGAKNGWLASDIGRDLVAP
  soluble fraction (log2): -0.459

## HMSFSQNIGKRIREERLRLNLTQEKLAEDVNLSMAYIGQVERGDRSLTLDNLIIVAKRLGVTIDYLLS
  soluble fraction (log2): -4.13

## HMTRNEFLTALRGRLSALPKEEQDAALKYYEEYFDEAESEEDAARQLGSPDSIAEKILADYA
  soluble fraction (log2): 0.418

## HMSKININTITESELKELPISTVKQKAIQDYLIDRGFISNIYDLLDIKEITSDDVSLLKKVVNVKLPY
  soluble fraction (log2): -0.489

## HMDQEDAYMQVRQVFDTLLVSELSKRIFAWRFFEGKSFAEWPGAESQKFLYDTFNRILLIISAKIRRKNA
  soluble fraction (log2): -0.0464

## HMFVVVPDLIGKTINQFEEDLSELNLKYVVSDSGNFNPEFKINAVLDQSPKANSKVKDGRKIYLTLNAS
  soluble fraction (log2): -0.434

## HMNADAIVGRTGVVTEAIAADGFGRVQIDGDSWKAKASGNNGIDVGAKVRVLRIDSIILTVEK
  soluble fraction (log2): -1.07

## HMTQGIDQISFSQFLDKVQSGEVTDVRISGSDITGTLKTGGKFETVAGNYEKIWDLLRENKVVFVVDSP
  soluble fraction (log2): 0.332

## HMAIWAVFYKNEPFNLKSFNSLTSYPGPKYKKTSFSNPGHALNLAKKLNLTFGTEDFQVVKLTQGTIV
  soluble fraction (log2): -2.69

## HMESKKKTYTVKSGDTLVSILKREGVPQELIFKDYLGLFLELNPQISDINKLRVGQEIVLPVPG
  soluble fraction (log2): 0.05

## HMQLNNTDELEKIILKILENNPKQVDQFLAGKQKLLGFFVGQAMRATSGKANPKTVNDLLEKFLSK
  soluble fraction (log2): 0.027

## HMPPNPELGKKLLKLRKEFKMTQDDVANILGMSRTSFSKYENGIANPPLQVMRKLASIYNVGLEYLI
  soluble fraction (log2): -1.84

## HMVAEKSKIEMAIDSINKLAKELADSGVAKKTISDIIKSVSGSANYNKITDFEVATDVYKELVALKNKEDT
  soluble fraction (log2): 0.223

## HMSGILINGELYKPGEQMSLKQRLSIQARIQMQGEDTVKPEMLKDFYNSGGPLSKEESSEYMKSQN
  soluble fraction (log2): -0.515

## HMVSFAEQASDWLAHFDRLGDVGPDTTLTDLTARDAEFSAWVNEGIHHRVAFLETLAAWHRTER
  soluble fraction (log2): -0.627

## HMGDTPVDFSEFIRWVDTGVVDRVELTGNEIVGTSSSGERFSTYAPPQYEGLGNKLIERDIVVVATAA
  soluble fraction (log2): -0.0455

## HMVPAMEVALEDARRAIEQVVSGERTSVQLSSQEAMIRKLQHQMAKDANLFSRSSGVEPQRRVTIYTN
  soluble fraction (log2): 0.0142

## HMQQQLLHIVFGGELKDVTGIEFEDLSKMDFVGAFSNYKDAYDAWKSAAQRTVDHAEMRYFILHAHKLL
  soluble fraction (log2): -6.11

## HMVRTIKILGIKHNINLYYKNVKVPTMNVKNQTLEIILPNKYKKFQEEQILKVLTQKLYDKIAETEIEKIK
  soluble fraction (log2): -1.11

## HMEPTIGTATVTSGSRLNMRSAKSTSASVVTRIPSGATVGVISYASDWSKVTYNGYTGYVSSPYISMNG
  soluble fraction (log2): -1.19

## HMRSFGTLRRLPSGRYQASYAGPDLRRHAAPTTFETKLDAEGWLRDEHRMIERDEWTAPAARSQLK
  soluble fraction (log2): -0.0721

## HMAFKNGLLQTSKKVTLVRKVDGVTMRFDSLRAASVFLGRNKGYLSNVIKNGRTLDNYEIVVGE
  soluble fraction (log2): -1.04

## HMDAAEVEATARAMLRRSALNLLAQREQTAFELKQKLSRRFPEQAALLDEVIERLQEQGLQDDTR
  soluble fraction (log2): -0.0318

## HMNPNPYIVLGVDKSMPFGEIKKVYQRKRREFHPDSLVAKGLPDELLQKAQDKFIAIQEAYKSIEKNQV
  soluble fraction (log2): 0.44

## HMGQLTDKQILLFSGKLAYEPTFASKYSKAGESYDDFIIRISGDLTDPKKIKEYSPYLKELGF
  soluble fraction (log2): -0.35

## HMIDRPLTLVEDYERFAGELAKITLRFMLDGRKRFNGRLAGFDEDGKIVLETSFGRFAFSFDEIDSARI
  soluble fraction (log2): -3.08

## HMIHQIPVNVQKIRQIIGINLNENDYLNYLAKLGFVIDEGLIIVPSFRSDVKTQNDLAEEIARV
  soluble fraction (log2): -0.547

## HMRQPRGQRVTVREASSLLPFLFAHLTDRSRSAVKSLLRHGQIWVNGRVTTHFDMPLRPGDTVLISHERG
  soluble fraction (log2): -1.33

## HMSMTLSVLDDVRGLSESRRKQLFHSFGSIKKLREQSKETLMSIPYLPEKVALELYDKLHEE
  soluble fraction (log2): -0.243

## HMRQVFPNPSSSQIKLASSRIGQAFSILDQQGRVVLSGKVSEEAVIALENLAKGIYVLKIGSWSETILK
  soluble fraction (log2): -2.89

## HMGAPAISYSKFLEQVDRKNVASVTIYKDGRIDGVMTSGSRFATESPSDPGLVGDLLKAGVEIRAKPP
  soluble fraction (log2): 0.177

## HMNKDEFLNELKSYLSILEDEEQADILEEYTQHIDMKISTGLSEAEAIRDFGNVSELAAQILEAY
  soluble fraction (log2): -0.465

## HMQMPDLTGKPRAEAVTTLAALGFTDVKFLDASAGDEPLDYVADQVVRTSPEAGAALASGQQITIYLAT
  soluble fraction (log2): -0.203

## HMDSTLTNEIYNELYRAITHQELKPGQNLTLTMLKKQFNVSHTPIREALTRLSADGLVTYHPNKGMKVT
  soluble fraction (log2): -0.444

## HMKSLHSEVTDRIRQLIVESHLQPGQRVPELEISRDLGVSRTPIREALKVLAAEGLVELLPLRGAMVK
  soluble fraction (log2): -0.0555

## HMRVGISRNSGAAGIAVWLTQKLGRPVAKTEEIVHILKNWVDDQYEAGRVTNIGDGELWSVYKQMEAEE
  soluble fraction (log2): -0.953

## HMAPEPFILSVDADGKYYIDDLEKTKQEILIYATALYQEKPTTDFLVRGDKSAAYNDVLQAMVVLKE
  soluble fraction (log2): 0.325

## HMPDAGQRRYLELVTALAGARSLTIDDLERRAIRFAEWGNGYSGRTARQFIDTLLQDRGVAEEL
  soluble fraction (log2): -0.731

## HMEIRNLMPILSHFLNENDIKLSRESVNLVLDRASGNRENLNNELKKIHDYSFSNKIIDFETIKKLTNLG
  soluble fraction (log2): -0.0896

## HMLLTPLEETRLVIEEIVIPQKLTIDLLPRSSAIRKLQHELITHYQLRGTSVGNEPNRRLRIYP
  soluble fraction (log2): -0.121

## HMDTDWDVSGVTPDQYRLLFSVLGGLAGVKDVGLNPDGLRIIHTPEALPSIEKAFQANGLKLKRNVD
  soluble fraction (log2): -0.0943

## HMFPQVEVQLIYSYKSDRILNKMLKEFNVVILNQVFKDDILTSFHMNYSLVNQLITKIKSYPDISYKIIN
  soluble fraction (log2): -1.82

## HMQINLSEWVLAAREYAGPEMTQEKLAEHLGRTKANVSAMENGRSKPSFEQMMEIHRVTGYPLPYQ
  soluble fraction (log2): -0.303

## HMSQTDTDAKDARQKILALLSDGEWHQKTELLKIDAPKEAVSNAIRYLVLEELISIDHAKVRA
  soluble fraction (log2): -0.447

## HMDVLIQEIGKRLRIQRLAMGLTQEELAKRAGISLSTLKLMEQQGKGSLQRLAKVAVVLDLDGDLRGLF
  soluble fraction (log2): -2.87

## HMKTGHLPVTVIIDGRIISDNLYKTGLSNNWLADQLRKNSIKSSEDVFFAYLNPERKFIYQLRSNS
  soluble fraction (log2): -1.49

## HMEPEWVINTDGSNLNEILAIDEVDSRKTFSNDLQEVYRTFGIEAARQILVQEIDAVIESSGA
  soluble fraction (log2): 0.082

## HMAQKQLYIAGTDYTKNSTSQLVLAYFPAKPSSIKIFFDGIYQNKDKWSLFGKTIIFGLPISSNAVEVHYE
  soluble fraction (log2): -4.34

## HMAIDLSLIPGNLLRELHGAVEDGDMYRIRELIRSISAVDEKVGKELLLLAERYDYERLLELVND
  soluble fraction (log2): -0.887

## HMELADLPSAQIREILAYVYRAPLEKRRDPSIHWLLIAAHKLTLPLLDRLDPADARALGERYGADYP
  soluble fraction (log2): -0.00148
